Laboratory results published in patent publication US20240108766A1 (Bayer, published 2024).
Numbering of substitutions follows the chain as printed.

T1: human LRRC15 expressed on cells (human, UniProt Q8TF66 22-581)
T1 construct: whole, on cells; On HEK293 cells transfected with LRRC15/ZsGreen1 (Retrogenix), on HT29 cells transfected with human LRRC15, and endogenous on Saos-2; also called LRRC15/ZsGreen1 transfected HEK293 cells; HT29-LRRC15
T1 sequence (looked up): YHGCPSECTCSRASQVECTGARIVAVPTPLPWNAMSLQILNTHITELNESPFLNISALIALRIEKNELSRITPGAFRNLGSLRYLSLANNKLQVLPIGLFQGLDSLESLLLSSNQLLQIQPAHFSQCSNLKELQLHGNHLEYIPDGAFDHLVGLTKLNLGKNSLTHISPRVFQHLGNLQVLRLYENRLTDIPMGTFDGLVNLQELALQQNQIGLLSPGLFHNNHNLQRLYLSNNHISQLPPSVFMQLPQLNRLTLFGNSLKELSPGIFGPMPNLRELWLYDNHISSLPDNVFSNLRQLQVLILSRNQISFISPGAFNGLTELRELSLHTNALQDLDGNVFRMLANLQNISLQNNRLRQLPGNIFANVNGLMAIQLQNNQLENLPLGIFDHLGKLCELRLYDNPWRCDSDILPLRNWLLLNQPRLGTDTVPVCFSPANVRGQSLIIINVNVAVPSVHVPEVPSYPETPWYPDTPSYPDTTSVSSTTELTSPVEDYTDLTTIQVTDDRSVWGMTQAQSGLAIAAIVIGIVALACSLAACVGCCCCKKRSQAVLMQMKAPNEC

T2: human LRRC15 extracellular domain with C-terminal His tag (human, UniProt Q8TF66 22-538)
T2 construct: Recombinant, made in HEK293; the entry holds the extracellular domain and the His tag; SPR analyte; also called TPP-1545; hLRRC15 CT-His
T2 sequence: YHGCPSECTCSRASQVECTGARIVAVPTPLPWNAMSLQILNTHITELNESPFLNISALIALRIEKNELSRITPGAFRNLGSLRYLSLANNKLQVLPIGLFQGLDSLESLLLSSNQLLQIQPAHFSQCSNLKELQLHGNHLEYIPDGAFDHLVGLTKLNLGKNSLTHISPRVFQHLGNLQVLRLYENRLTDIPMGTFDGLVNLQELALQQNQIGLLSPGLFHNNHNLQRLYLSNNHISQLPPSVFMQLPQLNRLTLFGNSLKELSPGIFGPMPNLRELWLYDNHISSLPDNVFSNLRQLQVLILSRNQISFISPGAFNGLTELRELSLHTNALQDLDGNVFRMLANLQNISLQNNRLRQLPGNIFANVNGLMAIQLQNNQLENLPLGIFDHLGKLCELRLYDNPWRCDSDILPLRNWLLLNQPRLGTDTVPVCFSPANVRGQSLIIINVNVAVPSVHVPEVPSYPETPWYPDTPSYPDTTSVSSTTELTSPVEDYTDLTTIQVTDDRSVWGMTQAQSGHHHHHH

T3: cynomolgus (Macaca fascicularis) LRRC15 extracellular domain with C-terminal His tag (cynomolgus monkey (Macaca fascicularis), UniProt Q8TF66 22-538 (human entry))
T3 construct: Recombinant, made in HEK293; the entry holds the extracellular domain and the His tag; SPR analyte; also called TPP-9046
T3 chain: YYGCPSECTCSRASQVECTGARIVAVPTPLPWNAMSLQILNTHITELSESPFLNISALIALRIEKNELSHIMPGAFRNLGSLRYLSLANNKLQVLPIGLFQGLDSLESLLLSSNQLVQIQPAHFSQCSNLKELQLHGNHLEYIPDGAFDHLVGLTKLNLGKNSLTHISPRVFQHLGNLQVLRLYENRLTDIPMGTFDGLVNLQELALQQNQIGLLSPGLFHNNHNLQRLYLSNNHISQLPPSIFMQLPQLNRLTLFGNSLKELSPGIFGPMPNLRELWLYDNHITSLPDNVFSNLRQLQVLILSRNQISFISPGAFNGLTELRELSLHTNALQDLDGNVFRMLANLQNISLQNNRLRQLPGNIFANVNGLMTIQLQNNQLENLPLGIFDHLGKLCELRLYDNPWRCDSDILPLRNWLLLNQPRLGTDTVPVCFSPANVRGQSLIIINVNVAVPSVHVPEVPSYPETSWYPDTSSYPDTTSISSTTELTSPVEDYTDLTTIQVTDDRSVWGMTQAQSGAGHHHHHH

B1: TPP-12942 (antibody, human IgG1, kappa, V domains shown)
VH: EVQLVQSGAEVKKPGASVKVSCKASGYKFSSYWIEWVKQAPGQGLEWIGEILPGSDTTNYNEKFKDRATFTSDTSINTAYMELSRLRSDDTAVYYCARDRGNYRAWFGYWGQGTLVTVSS
VL: DIQMTQSPSSLSASVGDRVTITCRASQDISNYLNWYQQKPGGAVKFLIYYTSRLHSGVPSRFSGSGSGTDYTLTISSLQPEDFATYFCQQGEALPWTFGGGTKVEIKR
notes: Prior art humanized IgG1 kappa antibody, used as comparator; also called huM25; huM25-hIgG1Kappa
B2: TPP-17421 (antibody, human IgG1, kappa, V domains shown)
VH: B1 VH with T57W, G108Q
VL: B1 VL with D28S, N31S, V44P, T51A, R53S, H55Q, F87Y, E92L, A93E
notes: also called 438H-M306-C11-hIgG1Kappa
B3: TPP-17078 (antibody, human IgG1, kappa, V domains shown)
VH: B1 VH
VL: B1 VL with D28S, N31S, V44P, T51A, R53S, H55Q, F87Y, E92F, A93S
notes: also called 438H-M308-H05-hIgGkappa
B4: TPP-14389 (antibody, human IgG1, kappa, V domains shown)
VH: EVQLLESGGGLVQPGGSLRLSCAASGFTFSGYMMSWVRQAPGKGLEWVSGIYPSPGYTYYADSVKGRFTISRDNSKNTLYLQMNSLRAEDTAVYYCAREKASDLFGSYSEALDYWGQGTLVTVSS
VL: DIQMTQSPDSLSASVGDRVTITCRASQDVGSWLAWYQQKPGKAPKLLIFAASSLESGIPSRFSGSGSGTDFTLTISSLQPEDFATYYCQQANGFPLTFGGGTKVEIKR
notes: also called 13612-rec02-hIgG1Kappa

molecular target: T1, human LRRC15 expressed on cells; assay: flow cytometry, transfected HEK293, 0.5 µg/ml

Row | Binder | Median Fluorescence AF647
1 | B1 | 524000
2 | B2 | 391000
3 | B3 | 527000

molecular target: T2, human LRRC15 extracellular domain with …; assay: calculated from SPR kd, 37°C
Protocol: (§1) To assess if anti-LRRC-15 antibodies show a difference in binding at different temperatures, binding assays were conducted using surface plasmon resonance (SPR). Binding assays were performed on a Biacore T200 instrument at temperatures of 10° C., 20° C., 25° C. and 37° C. with assay buffer HBS EP+, 1 mg/ml BSA (bovine serum albumine), 300 mM NaCl, 0.05% NaN₃. Antibodies were captured via anti-human Fc IgGs covalently amine coupled to a CM5 sensor chip and human LRRC15 was used as an analyte in a concentration series from 1.56-200 nM in multi cycle kinetics mode. Pre-experiments were conducted to have an equal capture level at each temperature. Obtained sensorgrams were fitted to a 1:1 Langmuir binding model to derive kinetic data.

Row | Binder | Complex Half Life [h]
4 | B4 | 0.01
5 | B1 | 0.0267
6 | B2 | 1.07
7 | B3 | 0.292

molecular target: T2, human LRRC15 extracellular domain with …; assay: calculated from SPR kd, 10°C
Protocol: as §1

Row | Binder | Complex Half Life [h]
8 | B4 | 1.6
9 | B1 | 0.963
10 | B2 | 9.63
11 | B3 | 14.8

molecular target: T2, human LRRC15 extracellular domain with …; assay: SPR Biacore T200, antibody captured, LRRC15 analyte, 25°C
Protocol: as §1

Row | Binder | Kd [nM]
12 | B4 | 5.4
13 | B1 | 21
14 | B2 | 0.88
15 | B3 | 1.6

Molecular target: T3, cynomolgus (Macaca fascicularis) LRRC15 …
Assay: SPR (Example 6), overview table, repeats Table 9; head prints [M^-1]
Protocol: (§2) To assess the binding kinetics and affinity of anti-LRRC15 antibodies as well as their species cross-reactivity profile, binding assays were conducted using surface plasmon resonance (SPR). Binding assays were performed on a Biacore T200 instrument at 25° C. using assay buffer HBS EP+, 1 mg/ml BSA, 300 mM NaCl, 0.05% NaN3. Antibodies were captured via anti-human Fc IgGs covalently amine coupled to a CM5 sensor chip and human, mouse and cynomolgus LRRC15 were used as analytes in a concentration series from 1.56-200 nM in multi cycle kinetics mode. […] Obtained sensorgrams were fitted to a 1:1 Langmuir binding model to derive kinetic data.

Row | Binder | Kd [nM]
16 | B4 | 9
17 | B1 | 36
18 | B2 | 0.91
19 | B3 | 1.8

molecular target: T2, human LRRC15 extracellular domain with …; assay: as above
Protocol: as §2

Row | Binder | Kd [nM]
20 | B4 | 5.9
21 | B1 | 25
22 | B2 | 0.96
23 | B3 | 1.7

molecular target: T2, human LRRC15 extracellular domain with …; assay: SPR Biacore T200, antibody captured, LRRC15 analyte, 37°C
Protocol: as §1

Row | Binder | Kd [nM]
24 | B4 | 66
25 | B1 | 72
26 | B2 | 2.4
27 | B3 | 9.9

molecular target: T1, human LRRC15 expressed on cells; assay: flow cytometry, transfected HEK293, 62.5 µg/ml

Row | Binder | Median Fluorescence AF647
28 | B1 | 620000
29 | B2 | 650000
30 | B3 | 621000
